Measurements taken from US7834144B2 (priority 2005, dated 2010).
“And” between values parts separate entries of the source, which are not always exact repeats. Equal values may be shown once. Read-outs that look alike come from different tables or passages of the source. Where no end group is shown, it is not given here. [ ]: non-standard residue; d: D form. Nab = not defined here; Nbn = not defined here

Assays:
PrP^Sc [1] = target: T1, PrP^Sc (Homo sapiens, UniProt P04156)
PrP^Sc [2] = target: T1, PrP^Sc; details: folded PrP^Sc pulled down by XIIb
PrP^Sc [3] = target: T1, PrP^Sc; remark: listed apart in the source
PrP^Sc [4] = target: T1, PrP^Sc; assay type: binding
PrPc [5] = target: T2, PrPc (Homo sapiens, UniProt P04156); details: Table 16
PrPc [6] = target: T2, PrPc; assay type: binding
PrPc [7] = target: T2, PrPc; details: Table 15
PrP^Sc [8] = target: T1, PrP^Sc; remark: listed apart in the source
[9] = Table 7, covalently bound to magnetic beads, 70% human plasma
[10] = H3PO4 (50 μl) 0.00007M, pH 4, NaOH (25 μl) 0.0031N
[11] = H3PO4 (50 μl) 0.00075M, pH 3, NaOH (25 μl) 0.031N
[12] = H3PO4 (50 μl) 0.12M, pH 2, NaOH (25 μl) 0.31N
[13] = H3PO4 (50 μl) 0.5M, pH 1, NaOH (25 μl) 3.1N
[14] = NaOH (50 μl) 0.0001M, pH 10, NaH2PO4 (20 μl) 0.0003M
[15] = NaOH (50 μl) 0.001M, pH 11, NaH2PO4 (20 μl) 0.003M
[16] = NaOH (50 μl) 0.1M, pH 12, NaH2PO4 (20 μl) 0.03M
[17] = NaOH (50 μl) 0.1M, pH 13, NaH2PO4 (20 μl) 0.3M

Peptoid Reagent XIIb: peptoid reagent comprising SEQ ID NO: 240, Nab-Nab-Nab-Nbn-Nab-Nbn, covalently bound to magnetic beads ([Nab][Nab][Nab][Nbn][Nab][Nbn]; reading uncertain; also: covalently bound to magnetic beads, printed as Nab-Nab-Nab-Nbn-Nab-Nbn)
vCJD BH (RLU) ave, Pulldown (PrP^Sc [1]; 10 nL of 10% vCJD BH in 50% pooled normal human plasma, XIIb-beads, 0.1N NaOH): 53.0 RLU | pulldown efficiency (PrP^Sc [1]; pulldown signal vs directly GdnSCN-denatured 10 nL 10% vCJD sample): ~100% | GdnHCl1/2 (GdnHCl concentration at half-maximal denaturation) (PrP^Sc [2]; sCJD brain homogenate): 2.0 M | GdnHCl1/2 (GdnHCl concentration at half-maximal denaturation) (PrP^Sc [2]; vCJD brain homogenate): 1.6 M | enrichment of PrP^Sc over PrP^C (PrP^Sc [3]; 47 pg PrP^Sc pulled down vs 7 pg of about 488 pg PrP^C): ≥ 70 fold | increase in signal (PrP^Sc [3]; 0.05 μl vCJD BH spiked into 70 μl plasma, versus background): four fold increase in signal | LU, Pulldown, PrPSc (PrP^Sc [3]; 70 ul plasma (70%) + 50 nl 10% vCJD BH, 3M GdnSCN): 97.1 LU | pg, Pulldown, PrPSc (PrP^Sc [3]; 70 ul plasma (70%) + 50 nl 10% vCJD BH, 3M GdnSCN, rPrP standard curve): 47 pg and 47.1 pg | Mean (PrP^Sc [4]; [9]): 174.3 | Mean (% of 68) (PrP^Sc [4]; [9]): 126.4% | Mean binding (PrP^Sc [4]; Table 10, 0.833 nL human vCJD 10% brain homogenate, 70% human plasma, covalently attached to beads): 49.2 | Mean binding (PrP^Sc [4]; Table 10, 2.5 nL human vCJD 10% brain homogenate, 70% human plasma, covalently attached to beads): 57.3 | Mean binding (PrP^Sc [4]; Table 10, 7.5 nL human vCJD 10% brain homogenate, 70% human plasma, covalently attached to beads): 121.1 | Mean binding (PrP^Sc [4]; Table 11, TBSTT with 70% Human Plasma containing 20 nL 10% human CJD brain homogenate): 1390.8 | Mean (% of Control) (PrP^Sc [4]; Table 13, Control Human Plasma): 100.0% | Mean (% of Control) (PrP^Sc [4]; Table 13, Human Plasma lot KC011886): 132.78% | Mean (% of Control) (PrP^Sc [4]; Table 13, Human Plasma lot KC011892): 127.51% | Mean (% of Control) (PrP^Sc [4]; Table 13, Human Plasma lot KC28719): 126.03% | Mean (% of Control) (PrP^Sc [4]; Table 13, Human Plasma lot KC032907): 125.02% | Mean (PrP^Sc [4]; Table 13, bound directly to magnetic beads, Control Human Plasma): 154.99 | Mean (PrP^Sc [4]; Table 13, bound directly to magnetic beads, Human Plasma lot KC011886): 205.80 | Mean (PrP^Sc [4]; Table 13, bound directly to magnetic beads, Human Plasma lot KC011892): 197.63 | Mean (PrP^Sc [4]; Table 13, bound directly to magnetic beads, Human Plasma lot KC28719): 195.33 | Mean (PrP^Sc [4]; Table 13, bound directly to magnetic beads, Human Plasma lot KC032907): 193.77 | AVE Plasma (PrPc [5]; 50 μl GdnSCN 3M, pH 5.9, 50 μl NaHCO3, final pH 8.5): 5.5 | AVE Plasma (PrPc [5]; 100 μl TBST, pH 7.5): 2.2 | AVE Plasma (PrPc [5]; [10]): 8.7 | AVE Plasma (PrPc [5]; [11]): 19.9 | AVE Plasma (PrPc [5]; [12]): 8.0 | AVE Plasma (PrPc [5]; [13]): 11.9 | AVE Plasma (PrPc [5]; [14]): 3.1 | AVE Plasma (PrPc [5]; [15]): 3.6 | AVE Plasma (PrPc [5]; [16]): 5.1 | AVE Plasma (PrPc [5]; [17]): 5.2 | Mean binding (PrPc [6]; Table 10, 15 nL 10% normal human brain homogenate, 70% human plasma, covalently attached to beads): 13.2 | Mean binding (PrPc [6]; Table 11, TBSTT with 70% Human Plasma): 269.5 | Mean binding (PrPc [6]; Table 11, TBSTT with 70% Human Plasma containing 20 nL 10% normal human brain homogenate): 306.4 | AVE Plasma (PrPc [7]; 15 μl GdnSCN 3M, pH 5.9, 210 μl H20, final pH 6.0): 37.7 | AVE Plasma (PrPc [7]; 70 μl TBST, pH 7.5): 11.8 | AVE Plasma (PrPc [7]; [10]): 26.8 | AVE Plasma (PrPc [7]; [11]): 25.8 | AVE Plasma (PrPc [7]; [12]): 92.7 | AVE Plasma (PrPc [7]; [13]): 30.4 | AVE Plasma (PrPc [7]; [14]): 197.6 | AVE Plasma (PrPc [7]; [15]): 14.6 | AVE Plasma (PrPc [7]; [16]): 16.1 | AVE Plasma (PrPc [7]; [17]): 15.1 | Avg LU, 3F4 Plate (PrP^Sc [8]; vCJD 0 nL BH/asy (background)): 4.55 LU | Avg LU, C17 Plate (PrP^Sc [8]; vCJD 0 nL BH/asy (background)): 45.56 LU | S/N, 3F4 Plate (PrP^Sc [8]; vCJD 0 nL BH/asy (background)): 1.0 | S/N, C17 Plate (PrP^Sc [8]; vCJD 0 nL BH/asy (background)): 1.0 | Avg LU, 3F4 Plate (PrP^Sc [8]; vCJD 1 nL BH/asy): 8.90 LU | Avg LU, C17 Plate (PrP^Sc [8]; vCJD 1 nL BH/asy): 50.75 LU | S/N, 3F4 Plate (PrP^Sc [8]; vCJD 1 nL BH/asy): 2.0 | S/N, C17 Plate (PrP^Sc [8]; vCJD 1 nL BH/asy): 1.1 | Avg LU, 3F4 Plate (PrP^Sc [8]; vCJD 5 nL BH/asy): 19.34 LU | Avg LU, C17 Plate (PrP^Sc [8]; vCJD 5 nL BH/asy): 74.71 LU | S/N, 3F4 Plate (PrP^Sc [8]; vCJD 5 nL BH/asy): 4.3 | S/N, C17 Plate (PrP^Sc [8]; vCJD 5 nL BH/asy): 1.6 | S/N, 3F4 Plate (PrP^Sc [8]; vCJD 10 nL BH/asy): 13.2 | S/N, C17 Plate (PrP^Sc [8]; vCJD 10 nL BH/asy): 2.7 | Avg LU, 3F4 Plate (PrP^Sc [8]; vCJD 10 nL BH/asy, 3F4 capture, C2-AP detection): 60.07 LU
